From FireProtDB (doi:10.1021/bi020450z)

B1: Adrenodoxin, mitochondrial, P00257 (parent)
chain: MAARLLRVASAALGDTAGRWRLLARPRAGAGGLRGSRGPGLGGGAVATRTLSVSGRAQSSSEDKITVHFINRDGETLTTKGKIGDSLLDVVVQNNLDIDGFGACEGTLACSTCHLIFEQHIFEKLEAITDEENDMLDLAYGLTDRSRLGCQICLTKAMDNMTVRVPDAVSDARESIDMGMNSSKIE

Variants of: B1
Settings: Bos taurus, reversible: YES, structure 1AYF, whole UniProt chain shown; for denaturant m value / denaturant midpoint (higher = more stable) / unfolding free energy: pH 7.5, 20 °C, GdnHCl, Fluorescence, Tris-HCl 50 mM; for Tm / change of melting temperature, mutant - wild type (higher = more stable): pH 8.5, Thermal, CD, Glycine

Row | Variant | denaturant m value | denaturant midpoint (higher = more stable) | unfolding free energy | Tm | change of melting temperature, mutant - wild type (higher = more stable)
1 | F122W | 2.28 kcal/mol/M | 1.82 M | 17.4 kJ/mol | 48.7 °C | -3.2 °C
2 | F117W | 2.09 kcal/mol/M | 1.01 M | 8.87 kJ/mol | 37.3 °C | -14.6 °C
3 | F101W | 2.19 kcal/mol/M | 1.5 M | 13.7 kJ/mol | 45.4 °C | -6.5 °C
4 | Y140W | – | – | – | 51.2 °C | -0.7 °C
5 | F69W | – | – | – | 46.6 °C | -5.3 °C
